# Reference: the supplement of paper PMC9112550, “Optimization of the antimicrobial peptide Bac7 by deep mutational scanning” (BMC Biology, 2022)
# Tested on: Escherichia coli TOP10
# Experiment: shrunken log2 fold change of peptide-encoding DNA abundance (4.5 h post-induction vs induction); higher = less antimicrobial activity (less host growth inhibition)
# Conditions: time post-induction: 4.5 h; library: site-saturation at positions 5, 18, 19, 20
# 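Further: peptides expressed intracellularly from a pBAD plasmid library in pooled LB shake-flask culture, induced with 0.3% L-arabinose, DNA abundance read by NGS, three biological replicates, DESeq2 with apeglm shrinkage.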
sequence,measurement,value
RRIRTRPPRLPRPRPRPSWGPRP,shrunken log2 fold change,-0.179
RRIRKRPPRLPRPRPRPLYGPRP,shrunken log2 fold change,-0.289
RRIRGRPPRLPRPRPRPLALPRP,shrunken log2 fold change,0.665
RRIRDRPPRLPRPRPRPAFWPRP,shrunken log2 fold change,-0.0581
RRIRFRPPRLPRPRPRPEIFPRP,shrunken log2 fold change,-0.139
RRIRMRPPRLPRPRPRPGSMPRP,shrunken log2 fold change,0.668
RRIRPRPPRLPRPRPRPGEGPRP,shrunken log2 fold change,0.349
RRIRFRPPRLPRPRPRPFIIPRP,shrunken log2 fold change,-0.816
RRIRKRPPRLPRPRPRPVGCPRP,shrunken log2 fold change,0.266
RRIRHRPPRLPRPRPRPGFYPRP,shrunken log2 fold change,-0.363
RRIRPRPPRLPRPRPRPCGIPRP,shrunken log2 fold change,-0.0938
RRIRWRPPRLPRPRPRPCRPPRP,shrunken log2 fold change,0.115
RRIRTRPPRLPRPRPRPYARPRP,shrunken log2 fold change,-0.000715
RRIRSRPPRLPRPRPRPQMIPRP,shrunken log2 fold change,-0.292
RRIRRRPPRLPRPRPRPRSLPRP,shrunken log2 fold change,-0.0226
RRIRIRPPRLPRPRPRPYCNPRP,shrunken log2 fold change,-0.154
RRIRHRPPRLPRPRPRPMCNPRP,shrunken log2 fold change,-0.186
RRIRGRPPRLPRPRPRPRTMPRP,shrunken log2 fold change,0.539
RRIRRRPPRLPRPRPRPLWAPRP,shrunken log2 fold change,0.501
RRIRPRPPRLPRPRPRPRNKPRP,shrunken log2 fold change,-0.136
RRIRRRPPRLPRPRPRPPYCPRP,shrunken log2 fold change,0.256
RRIRCRPPRLPRPRPRPWRLPRP,shrunken log2 fold change,0.0337
RRIRARPPRLPRPRPRPIVFPRP,shrunken log2 fold change,-0.0956
RRIRLRPPRLPRPRPRPDFYPRP,shrunken log2 fold change,-0.324
RRIRIRPPRLPRPRPRPGAGPRP,shrunken log2 fold change,0.29
RRIRWRPPRLPRPRPRPAHQPRP,shrunken log2 fold change,0.176
RRIRLRPPRLPRPRPRPEAWPRP,shrunken log2 fold change,0.0169
RRIRWRPPRLPRPRPRPNFHPRP,shrunken log2 fold change,-0.0344
RRIRNRPPRLPRPRPRPSVMPRP,shrunken log2 fold change,-0.281
RRIRQRPPRLPRPRPRPEWGPRP,shrunken log2 fold change,0.125
RRIRYRPPRLPRPRPRPQNGPRP,shrunken log2 fold change,-0.152
RRIRKRPPRLPRPRPRPFLTPRP,shrunken log2 fold change,-0.206
RRIRDRPPRLPRPRPRPIMYPRP,shrunken log2 fold change,-0.0948
RRIRCRPPRLPRPRPRPMYLPRP,shrunken log2 fold change,-0.464
RRIRFRPPRLPRPRPRPFWKPRP,shrunken log2 fold change,-0.0963
RRIRFRPPRLPRPRPRPTDMPRP,shrunken log2 fold change,0.0617
RRIRYRPPRLPRPRPRPAKYPRP,shrunken log2 fold change,-0.142
RRIRCRPPRLPRPRPRPWCQPRP,shrunken log2 fold change,-0.32
RRIRLRPPRLPRPRPRPGKVPRP,shrunken log2 fold change,-0.0116
RRIRGRPPRLPRPRPRPCKPPRP,shrunken log2 fold change,0.108
RRIRRRPPRLPRPRPRPQFDPRP,shrunken log2 fold change,0.107
RRIRHRPPRLPRPRPRPWHRPRP,shrunken log2 fold change,-0.119
RRIRVRPPRLPRPRPRPVRSPRP,shrunken log2 fold change,0.522
RRIRTRPPRLPRPRPRPLKGPRP,shrunken log2 fold change,-0.377
RRIRARPPRLPRPRPRPRYEPRP,shrunken log2 fold change,0.0403
RRIRARPPRLPRPRPRPPFTPRP,shrunken log2 fold change,0.3
RRIRCRPPRLPRPRPRPLEKPRP,shrunken log2 fold change,-0.072
RRIRPRPPRLPRPRPRPYFAPRP,shrunken log2 fold change,-0.0984
RRIRRRPPRLPRPRPRPKGHPRP,shrunken log2 fold change,0.127
RRIRTRPPRLPRPRPRPTMLPRP,shrunken log2 fold change,3.82
RRIRTRPPRLPRPRPRPPKRPRP,shrunken log2 fold change,0.302
RRIRMRPPRLPRPRPRPPFYPRP,shrunken log2 fold change,-0.182
RRIRYRPPRLPRPRPRPIEFPRP,shrunken log2 fold change,-0.0341
RRIRFRPPRLPRPRPRPLDPPRP,shrunken log2 fold change,0.0688
RRIRKRPPRLPRPRPRPDHMPRP,shrunken log2 fold change,0.0864
RRIRVRPPRLPRPRPRPESIPRP,shrunken log2 fold change,-0.149
RRIRSRPPRLPRPRPRPNRGPRP,shrunken log2 fold change,0.0138
RRIRFRPPRLPRPRPRPKSGPRP,shrunken log2 fold change,0.0565
RRIRVRPPRLPRPRPRPINHPRP,shrunken log2 fold change,-0.464
RRIRIRPPRLPRPRPRPKFKPRP,shrunken log2 fold change,-0.0251
RRIRERPPRLPRPRPRPVSKPRP,shrunken log2 fold change,-0.201
RRIRHRPPRLPRPRPRPFWSPRP,shrunken log2 fold change,-0.0841
RRIRWRPPRLPRPRPRPYVQPRP,shrunken log2 fold change,-0.0608
RRIRWRPPRLPRPRPRPPYKPRP,shrunken log2 fold change,-0.249
RRIRPRPPRLPRPRPRPFTDPRP,shrunken log2 fold change,-0.247
RRIRIRPPRLPRPRPRPQWNPRP,shrunken log2 fold change,-0.316
RRIRHRPPRLPRPRPRPKTCPRP,shrunken log2 fold change,-0.0999
RRIRARPPRLPRPRPRPMVCPRP,shrunken log2 fold change,0.396
RRIRSRPPRLPRPRPRPMYWPRP,shrunken log2 fold change,-0.134
RRIRDRPPRLPRPRPRPEFNPRP,shrunken log2 fold change,0.574
RRIRDRPPRLPRPRPRPAVCPRP,shrunken log2 fold change,1.19
RRIRNRPPRLPRPRPRPYLQPRP,shrunken log2 fold change,-0.00906
RRIRSRPPRLPRPRPRPRGDPRP,shrunken log2 fold change,0.477
RRIRARPPRLPRPRPRPSETPRP,shrunken log2 fold change,0.176
RRIRHRPPRLPRPRPRPYLPPRP,shrunken log2 fold change,-0.618
RRIRWRPPRLPRPRPRPADHPRP,shrunken log2 fold change,0.193
RRIRERPPRLPRPRPRPEKDPRP,shrunken log2 fold change,-0.137
RRIRRRPPRLPRPRPRPQYVPRP,shrunken log2 fold change,-0.265
RRIRVRPPRLPRPRPRPKRSPRP,shrunken log2 fold change,0.112
RRIRKRPPRLPRPRPRPKWCPRP,shrunken log2 fold change,0.152
RRIRKRPPRLPRPRPRPWTSPRP,shrunken log2 fold change,-0.113
RRIRPRPPRLPRPRPRPVFLPRP,shrunken log2 fold change,-0.128
RRIRWRPPRLPRPRPRPHRNPRP,shrunken log2 fold change,-0.255
RRIRNRPPRLPRPRPRPNWAPRP,shrunken log2 fold change,0.0482
RRIRSRPPRLPRPRPRPCNEPRP,shrunken log2 fold change,-1.09
RRIRCRPPRLPRPRPRPYMNPRP,shrunken log2 fold change,-0.99
RRIRDRPPRLPRPRPRPDNVPRP,shrunken log2 fold change,-0.273
RRIRCRPPRLPRPRPRPAMGPRP,shrunken log2 fold change,-0.0638
RRIRDRPPRLPRPRPRPLQLPRP,shrunken log2 fold change,-0.0775
RRIRMRPPRLPRPRPRPGYPPRP,shrunken log2 fold change,0.0749
RRIRPRPPRLPRPRPRPDWNPRP,shrunken log2 fold change,-0.0666
RRIRIRPPRLPRPRPRPERHPRP,shrunken log2 fold change,0.0733
RRIRTRPPRLPRPRPRPYSSPRP,shrunken log2 fold change,0.00157
RRIRPRPPRLPRPRPRPPCDPRP,shrunken log2 fold change,0.182
RRIRMRPPRLPRPRPRPNYRPRP,shrunken log2 fold change,-0.133
RRIRNRPPRLPRPRPRPKAAPRP,shrunken log2 fold change,3.06
RRIRARPPRLPRPRPRPAKVPRP,shrunken log2 fold change,0.167
RRIRTRPPRLPRPRPRPDLIPRP,shrunken log2 fold change,-0.0343
RRIRDRPPRLPRPRPRPWEVPRP,shrunken log2 fold change,-0.0135
RRIRVRPPRLPRPRPRPLKRPRP,shrunken log2 fold change,0.0621
RRIRVRPPRLPRPRPRPWEKPRP,shrunken log2 fold change,0.0403
RRIRQRPPRLPRPRPRPLPVPRP,shrunken log2 fold change,0.21
RRIRARPPRLPRPRPRPMIIPRP,shrunken log2 fold change,-0.0301
RRIRPRPPRLPRPRPRPKTMPRP,shrunken log2 fold change,0.0176
RRIRNRPPRLPRPRPRPFRIPRP,shrunken log2 fold change,-0.0132
RRIRTRPPRLPRPRPRPWIWPRP,shrunken log2 fold change,-0.0307
RRIRHRPPRLPRPRPRPMMNPRP,shrunken log2 fold change,-0.0135
RRIRKRPPRLPRPRPRPLQCPRP,shrunken log2 fold change,0.101
RRIRTRPPRLPRPRPRPLSKPRP,shrunken log2 fold change,-0.22
RRIRMRPPRLPRPRPRPMEYPRP,shrunken log2 fold change,0.0305
RRIRHRPPRLPRPRPRPDLMPRP,shrunken log2 fold change,-0.175
RRIRSRPPRLPRPRPRPNIQPRP,shrunken log2 fold change,-0.28
RRIRNRPPRLPRPRPRPNYEPRP,shrunken log2 fold change,-0.21
RRIRKRPPRLPRPRPRPPWGPRP,shrunken log2 fold change,0.501
RRIRTRPPRLPRPRPRPSHFPRP,shrunken log2 fold change,-0.315
RRIRPRPPRLPRPRPRPIFQPRP,shrunken log2 fold change,0.0149
RRIRKRPPRLPRPRPRPSICPRP,shrunken log2 fold change,0.242
RRIRVRPPRLPRPRPRPPGSPRP,shrunken log2 fold change,0.342
RRIRRRPPRLPRPRPRPNLKPRP,shrunken log2 fold change,-0.0818
RRIRPRPPRLPRPRPRPGLIPRP,shrunken log2 fold change,-0.0104
RRIRYRPPRLPRPRPRPDGCPRP,shrunken log2 fold change,-0.029
RRIRRRPPRLPRPRPRPWEFPRP,shrunken log2 fold change,0.00288
RRIRYRPPRLPRPRPRPQDMPRP,shrunken log2 fold change,0.000181
RRIRQRPPRLPRPRPRPRIPPRP,shrunken log2 fold change,0.206
RRIRGRPPRLPRPRPRPCYMPRP,shrunken log2 fold change,-0.328
